Laboratory results from the supplement of paper PMC5998384.

What was measured:
HeLa Kyoto [1] = assay: solubility change mitosis vs G1/S (difference of NP-40 vs SDS log2 ratios) (log2 ratio difference); higher = more soluble in mitosis
HeLa Kyoto [2] = assay: thermal stability score vs G1/S (z-score of summed log2 fold changes over temperatures); higher = more thermally stable than in G1/S
HeLa Kyoto [3] = assay: melting temperature (median over replicates), in situ; higher = more thermally stable
HeLa Kyoto [4] = assay: solubility in G1/S (NP-40 vs SDS abundance) (log2 ratio); higher = more soluble; conditions: cell cycle stage: G1/S
[5] = cell cycle stage: early G1 (4.5 h after nocodazole release)
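For melting temperature (median over replicates), in situ in this document: HeLa Kyoto cells synchronized by double thymidine or nocodazole block, proteins quantified by TMT10plex mass spectrometry, three independent biological replicates.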
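For solubility change mitosis vs G1/S (difference of NP-40 vs SDS log2 ratios) in this document: synchronized HeLa Kyoto cells (double thymidine block for G1/S, nocodazole release for mitosis), protein amounts in NP-40 versus SDS lysates quantified by mass spectrometry, three biological replicates.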
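For solubility in G1/S (NP-40 vs SDS abundance) in this document: HeLa Kyoto cells arrested at G1/S by double thymidine block, proteins quantified by TMT10plex mass spectrometry in mild NP-40 versus SDS extracts, three biological replicates.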
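For thermal stability score vs G1/S (z-score of summed log2 fold changes over temperatures) in this document: synchronized HeLa Kyoto cells, proteins quantified by TMT10plex mass spectrometry, three biological replicates, mitosis taken 0.5 h after nocodazole release, G1/S directly after double thymidine block.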

| Sequence | solubility change mitosis (log2) (HeLa Kyoto [1]) | thermal stability score (HeLa Kyoto [2]; [5]) | thermal stability score (HeLa Kyoto [2]; cell cycle stage: mitosis) | melting temperature (HeLa Kyoto [3]; cell cycle stage: G1/S) | melting temperature (HeLa Kyoto [3]; cell cycle stage: mitosis) | solubility in G1/S (log2) (HeLa Kyoto [4]) |
| --- | --- | --- | --- | --- | --- | --- |
| MSDFDSNPFADPDLNNPFKDPSVTQVTRNVPPGLDEYNPFSDSRTPPPGGVKMPNVPNTQPAIMKPTEEHPAYTQIAKEHALAQAELLKRQEELERKAAELDRREREMQNLSQHGRKNNWPPLPSNFPVGPCFYQDFSVDIPVEFQKTVKLMYYLWMFHAVTLFLNIFGCLAWFCVDSARAVDFGLSILWFLLFTPCSFVCWYRPLYGAFRSDSSFRFFVFFFVYICQFAVHVLQAAGFHNWGNCGWISSLTGLNQNIPVGIMMIIIAALFTASAVISLVMFKKVHGLYRTTGASFEKAQQEFATGVMSNKTVQTAAANAASTAASSAAQNAFKGNQI [SCAMP1] | -0.114 | -0.608 | -0.121 | 55.8 °C | 56 °C | 0.0609 |
| MSDGFDRAPGAGRGRSRGLGRGGGGPEGGGFPNGAGPAERARHQPPQPKAPGFLQPPPLRQPRTTPPPGAQCEVPASPQRPSRPGALPEQTRPLRAPPSSQDKIPQQNSESAMAKPQVVVAPVLMSKLSVNAPEFYPSGYSSSYTESYEDGCEDYPTLSEYVQDFLNHLTEQPGSFETEIEQFAETLNGCVTTDDALQELVELIYQQATSIPNFSYMGARLCNYLSHHLTISPQSGNFRQLLLQRCRTEYEVKDQAAKGDEVTRKRFHAFVLFLGELYLNLEIKGTNGQVTRADILQVGLRELLNALFSNPMDDNLICAVKLLKLTGSVLEDAWKEKGKMDMEEIIQRIENVVLDANCSRDVKQMLLKLVELRSSNWGRVHATSTYREATPENDPNYFMNEPTFYTSDGVPFTAADPDYQEKYQELLEREDFFPDYEENGTDLSGAGDPYLDDIDDEMDPEIEEAYEKFCLESERKRKQ [PAIP1] | 0.154 | 1.49 | 1.64 | 52.9 °C | 52.8 °C | 0.466 |
| MSDKDDIETPLLTEAAPILEDGNCEPAKNSESVDQGAKPESKSEPVVSTRKRPETKPSSDLETSKVLPIQDNVSKDVPQTRWGYWGSWGKSILSSASATVATVGQGISNVIEKAETSLGIPGPSEISTEVKYVAGETNAKENENSSPVAGAFGVFSTISTAVQSTGKSVISGGLDALEFIGKKTMDVIAEGDPGFKRTKGLMNRNATLSQVLREAKEKEEIRTSNEVTVETDKKTHYGLLFDEFQGLSHLEALEMLSQESEIKVKSILNSLSGEELETLKVELEQLKETFSLAEFCEEEEEEKKGDEDFTKDITELFSQLHVSSKPEKLARARNTAHEWIRKSLTKPLAENEEGEKQSEAENTEQVNKNSIEDIHAFAIRSLAELTACSIELFHKTAALVLHGRKQEVTAIERSQTLSQMTIVLCKELSSLSKEFTTCLTTAGVKEMADVLNPLITAVFLEASNSASYIQDAFQLLLPVLEISLIENKIESHRHELQGQKPLLEH [FAM114A2] | -0.0154 | 0.464 | 0.0988 | 52.3 °C | 52 °C | 0.326 |
| MSDLQAAEGPGSWSPTARPGSAGGVGDCQGVEGSQAAASENEDLENKDTSLLASATDPEPCSSPHRPQMVSPVSKDATEDLRKATGPLEAQALVKQDLLPADQAQVLNEMAKYQVPQRSGDIVMIQSEHTGAIDVLSADLESADLLGDHRKVSPPLMAPPCIWTFAKVKEFKSKLGKEKNSRLVVKRGEVVTIRVPTHPEGKRVCWEFATDDYDIGFGVYFDWTPVTSTDITVQVSDSSDDEDEEEEEEEEIEEPVPAGDVERGSRSSLRGRYGEVMPVYRRDSHRDVQAGSHDYPGEGIYLLKFDNSYSLLRNKTLYFHIYYTS [TMED8] | -0.104 | -0.422 | -0.616 | 50.4 °C | 50.3 °C | 0.328 |
| MSDTAVADTRRLNSKPQDLTDAYGPPSNFLEIDIFNPQTVGVGRARFTTYEVRMRTNLPIFKLKESCVRRRYSDFEWLKNELERDSKIVVPPLPGKALKRQLPFRGDEGIFEESFIEERRQGLEQFINKIAGHPLAQNERCLHMFLQEEAIDRNYVPGKVRQ [SNX12] | 0.12 | -0.501 | -1.12 | 49.2 °C | 50.7 °C | 0.348 |
| MSDTLTADVIGRRVEVNGEHATVRFAGVVPPVAGPWLGVEWDNPERGKHDGSHEGTVYFKCRHPTGGSFIRPNKVNFGTDFLTAIKNRYVLEDGPEEDRKEQIVTIGNKPVETIGFDSIMKQQSQLSKLQEVSLRNCAVSCAGEKGGVAEACPNIRKVDLSKNLLSSWDEVIHIADQLRHLEVLNVSENKLKFPSGSVLTGTLSVLKVLVLNQTGITWAEVLRCVAGCPGLEELYLESNNIFISERPTDVLQTVKLLDLSSNQLIDENQLYLIAHLPRLEQLILSDTGISSLHFPDAGIGCKTSMFPSLKYLVVNDNQISQWSFFNELEKLPSLRALSCLRNPLTKEDKEAETARLLIIASIGQLKTLNKCEILPEERRRAELDYRKAFGNEWKQAGGHKDPEKNRLSEEFLTAHPRYQFLCLKYGAPEDWELKTQQPLMLKNQLLTLKIKYPHQLDQKVLEKQLPGSMTIQKVKGLLSRLLKVPVSDLLLSYESPKKPGREIELENDLKSLQFYSVENGDCLLVRW [TBCE] | -0.101 | -0.0546 | 1.48 | 47.9 °C | 48.4 °C | 0.308 |
| MSDTRRRVKVYTLNEDRQWDDRGTGHVSSTYVEELKGMSLLVRAESDGSLLLESKINPNTAYQKQQDTLIVWSEAENYDLALSFQEKAGCDEIWEKICQVQGKDPSVEVTQDLIDESEEERFEEMPETSHLIDLPTCELNKLEEIADLVTSVLSSPIRREKLALALENEGYIKKLLQLFQACENLENTEGLHHLYEIIRGILFLNKATLFEVMFSDECIMDVVGCLEYDPALAQPKRHREFLTKTAKFKEVIPITDSELRQKIHQTYRVQYIQDIILPTPSVFEENFLSTLTSFIFFNKVEIVSMLQEDEKFLSEVFAQLTDEATDDDKRRELVNFFKEFCAFSQTLQPQNRDAFFKTLAKLGILPALEIVMGMDDLQVRSAATDIFSYLVEFSPSMVREFVMQEAQQSDDDILLINVVIEQMICDTDPELGGAVQLMGLLRTLIDPENMLATTNKTEKSEFLNFFYNHCMHVLTAPLLTNTSEDKCEKDFFLKHYRYSWSFICTPSHSHSHSTPSSSISQDNIVGSNKNNTICPDNYQTAQLLALILELLTFCVEHHTYHIKNYIMNKDLLRRVLVLMNSKHTFLALCALRFMRRIIGLKDEFYNRYITKGNLFEPVINALLDNGTRYNLLNSAVIELFEFIRVEDIKSLTAHIVENFYKALESIEYVQTFKGLKTKYEQEKDRQNQKLNSVPSILRSNRFRRDAKALEEDEEMWFNEDEEEEGKAVVAPVEKPKPEDDFPDNYEKFMETKKAKESEDKENLPKRTSPGGFKFTFSHSASAANGTNSKSVVAQIPPATSNGSSSKTTNLPTSVTATKGSLVGLVDYPDDEEEDEEEESSPRKRPRLGS [PPP4R3B] | -0.181 | 1.17 | 1.76 | 49.6 °C | 49.5 °C | 0.0425 |
| MSDTSESGAGLTRFQAEASEKDSSSMMQTLLTVTQNVEVPETPKASKALEVSEDVKVSKASGVSKATEVSKTPEAREAPATQASSTTQLTDTQVLAAENKSLAADTKKQNADPQAVTMPATETKKVSHVADTKVNTKAQETEAAPSQAPADEPEPESAAAQSQENQDTRPKVKAKKARKVKHLDGEEDGSSDQSQASGTTGGRRVSKALMASMARRASRGPIAFWARRASRTRLAAWARRALLSLRSPKARRGKARRRAAKLQSSQEPEAPPPRDVALLQGRANDLVKYLLAKDQTKIPIKRSDMLKDIIKEYTDVYPEIIERAGYSLEKVFGIQLKEIDKNDHLYILLSTLEPTDAGILGTTKDSPKLGLLMVLLSIIFMNGNRSSEAVIWEVLRKLGLRPGIHHSLFGDVKKLITDEFVKQKYLDYARVPNSNPPEYEFFWGLRSYYETSKMKVLKFACKVQKKDPKEWAAQYREAMEADLKAAAEAAAEAKARAEIRARMGIGLGSENAAGPCNWDEADIGPWAKARIQAGAEAKAKAQESGSASTGASTSTNNSASASASTSGGFSAGASLTATLTFGLFAGLGGAGASTSGSSGACGFSYK [MAGED2] | -0.157 | 2.46 | 4.54 | 46.9 °C | 48.4 °C | 0.259 |
| MSDYSTGGPPPGPPPPAGGGGGAGGAGGGPPPGPPGAGDRGGGGPGGGGPGGGSAGGPSQPPGGGGPGIRKDAFADAVQRARQIAAKIGGDAATTVNNSTPDFGFGGQKRQLEDGDQPESKKLASQGDSISSQLGPIHPPPRTSMTEEYRVPDGMVGLIIGRGGEQINKIQQDSGCKVQISPDSGGLPERSVSLTGAPESVQKAKMMLDDIVSRGRGGPPGQFHDNANGGQNGTVQEIMIPAGKAGLVIGKGGETIKQLQERAGVKMILIQDGSQNTNVDKPLRIIGDPYKVQQACEMVMDILRERDQGGFGDRNEYGSRIGGGIDVPVPRHSVGVVIGRSGEMIKKIQNDAGVRIQFKQDDGTGPEKIAHIMGPPDRCEHAARIINDLLQSLRSGPPGPPGGPGMPPGGRGRGRGQGNWGPPGGEMTFSIPTHKCGLVIGRGGENVKAINQQTGAFVEISRQLPPNGDPNFKLFIIRGSPQQIDHAKQLIEEKIEGPLCPVGPGPGGPGPAGPMGPFNPGPFNQGPPGAPPHAGGPPPHQYPPQGWGNTYPQWQPPAPHDPSKAAAAAADPNAAWAAYYSHYYQQPPGPVPGPAPAPAAPPAQGEPPQPPPTGQSDYTKAWEEYYKKIGQQPQQPGAPPQQDYTKAWEEYYKKQAQVATGGGPGAPPGSQPDYSAAWAEYYRQQAAYYGQTPGPGGPQPPPTQQGQQQAQ [KHSRP] | 0.0471 | 1.92 | 1.64 | 55.4 °C | 55.7 °C | 0.523 |
| MSEADGLRQRRPLRPQVVTDDDGQAPEAKDGSSFSGRVFRVTFLMLAVSLTVPLLGAMMLLESPIDPQPLSFKEPPLLLGVLHPNTKLRQAERLFENQLVGPESIAHIGDVMFTGTADGRVVKLENGEIETIARFGSGPCKTRDDEPVCGRPLGIRAGPNGTLFVADAYKGLFEVNPWKREVKLLLSSETPIEGKNMSFVNDLTVTQDGRKIYFTDSSSKWQRRDYLLLVMEGTDDGRLLEYDTVTREVKVLLDQLRFPNGVQLSPAEDFVLVAETTMARIRRVYVSGLMKGGADLFVENMPGFPDNIRPSSSGGYWVGMSTIRPNPGFSMLDFLSERPWIKRMIFKLFSQETVMKFVPRYSLVLELSDSGAFRRSLHDPDGLVATYISEVHEHDGHLYLGSFRSPFLCRLSLQAV [APMAP] | -0.116 | 0.325 | 0.806 | 56.2 °C | 57.2 °C | 0.164 |
| MSEDLAKQLASYKAQLQQVEAALSGNGENEDLLKLKKDLQEVIELTKDLLSTQPSETLASSDSFASTQPTHSWKVGDKCMAVWSEDGQCYEAEIEEIDEENGTAAITFAGYGNAEVTPLLNLKPVEEGRKAKEDSGNKPMSKKEMIAQQREYKKKKALKKAQRIKELEQEREDQKVKWQQFNNRAYSKNKKGQVKRSIFASPESVTGKVGVGTCGIADKPMTQYQDTSKYNVRHLMPQ [SMNDC1] | 0.405 | -2.66 | -6.93 | 57.7 °C | 55.9 °C | 0.271 |
| MSELEQLRQEAEQLRNQIQDARKACNDATLVQITSNMDSVGRIQMRTRRTLRGHLAKIYAMHWGYDSRLLVSASQDGKLIIWDSYTTNKMHAIPLRSSWVMTCAYAPSGNYVACGGLDNICSIYNLKTREGNVRVSRELPGHTGYLSCCRFLDDSQIVTSSGDTTCALWDIETAQQTTTFTGHSGDVMSLSLSPDMRTFVSGACDASSKLWDIRDGMCRQSFTGHVSDINAVSFFPNGYAFATGSDDATCRLFDLRADQELLLYSHDNIICGITSVAFSKSGRLLLAGYDDFNCNVWDTLKGDRAGVLAGHDNRVSCLGVTDDGMAVATGSWDSFLRIWN [GNB4] | -0.13 | -1.5 | -0.567 | 55.6 °C | 56.7 °C | -0.287 |
